# According to the DeepSol protein solubility set:
# Test: soluble on expression in E. coli; label from the status in PepcDB or PDB records
row,Sequence,soluble on expression in E. coli
1,MGSDKIHHHHHHMNSRTSFVSPDDRFSMVYFKMEHEGCWTGITKEHNIAIHTLKIIPLKDRNNIYGLFEIRAQGKKEFRDFLRRINREKTIHRVMAYSPSELRKNVYFIDLYEVYGGMIEGILNDYQSIFEYDVVRRGVEEKYAIIPSDRVLELKNSINGLGKIYQFKARCIKNFYYAFSPFLSYTPSEMQIIAEAVSRGYYSIPRHVGIRDLAEYFGMSKSTVQEYLRKAEQKTMNNLKLLKLMNEMKE,not soluble
2,GVNSVAARVTELTGREVAAVAERGHSHRWHLYRVELADGTPLFVKALPDDAPALDGLFRAEALGLDWLGRSFGSPVPQVAGWDDRTLAMEWVDERPPTPEAAERFGHQLAAMHLAGAESFGATWDGYIGPLPMDNTPRSTWPEFYAEQRILPYLRRAADRGALTPGDVRLVEKVLDALDHLAGDPEPPARIHGDLWNGNVLWQDDGAVVIDPAAHGGHREADLAMLALFGLPYLDRVRDAYNEVAPLAEGWRARIPLHQLHPLLVHVCLFGAAYRTTLVDTARAALRA,soluble
3,MGSDKIHHHHHHMGIPKRKLGERGPEVSAIGLGCMRMSFGQKKLPDRKEMIKLIRTAVELGINFFDTAEVYGPYTNEELVGEALEPFKGEVVIATKFGFELYEDGRPGWKGLNSNPEHIKKAVEGSLRRLRVEAIDILYQHRVDPNVPIEEVAGAVKELIEEGKVKHFGLCEASAETIRRAHKVCPVDVVQYEYSMWWRKPEEELLPTCEELGIGFVAYSPLGKGFLTGAIGENSKFDEEDSRSRIPRFQKENLRENLALVELRKTIAERKGATPSQIALAWLLAQKPWIVPIPGTTKLSHLLENIGGAFVELTPEELQEINDALSRIEIKGSRYPEDMEKMTYL,not soluble
4,MGSDKIHHHHHHAASITLPSGYTKNAVIKWNQTGKASKALINASKKGMMENTNSDAGSDNTLVNVTKLTNSQKVELSKYTLSLINSARSQLGKKPWTYRSGALRFADRVANQYYTHNKSCWDPDHYVAGILRAAKASGLNSNAGQVYEDEAGLPISSQYGSNLRTMSVLKNQIYFNVKQMLFGGFAGSDSQMNDSSRYTEWEHAGDLLGCRTKNYDAKTKYFGVSFSGLKDDQSKISVHMIGVAKRYIQNYKKFNH,not soluble
5,MAGDPMVTQNKKILIITGSFGNGHMQVTQSIVNQLNDMNLDHLSVIEHDLFMEAHPILTSICKKWYINSFKYFRNMYKGFYYSRPDKLDKCFYKYYGLNKLINLLIKEKPDLILLTFPTPVMSVLTEQFNINIPVATVMTDYRLHKNWITPYSTRYYVATKETKQDFIDVGIDPSTVKVTGIPIDNKFETPINQKQWLIDNNLDPDKQTILMSAGAFGVSKGFDTMITDILAKSANAQVVMICGKSKELKRSLTAKFKSNENVLILGYTKHMNEWMASSQLMITKPGGITITEGFARCIPMIFLNPAPGQELENALYFEEKGFGKIADTPEEAIKIVASLTNGNEQLTNMISTMEQDKIKYATQTICRDLLDLIGHSSQPQEIYGKVPLYARFFVKLEHHHHHH,not soluble
6,MISIDPQFIKNFSKKVKQFDKFSLFVHVNPDFDAFGSAFAFKTFLNTFFSEKKAYVMGSYNINADGRELFPFEQTDINDDFVKESLAIIFDTSNQERVLTQKHKLAKETVRIDHHPRTEKFADMEWIDSSFSATAEMIGYLILQMGYKLNDEIASYLYAGIITDTQRFWGPTTTPQTFALTAKLMETGFNRNKVHDAVYLKPLLEHKYFSYVLSKAKITKNGLAYALIKKGAYKHFGVVSPLPMVHALNNIKGVKIWTTVYFNESIKKWIGSIRSRNIPINNFAQMFNGGGHKYAAAFVLDEKNQFMKLVQIMDDFLAKQNENS,not soluble
7,MKMMPSKLQKNKQRLRNDPLNQNKGKPDLNTTLPIRQTASIFKQPVTKVTNHPSNKVKSDPQRMNEQPRQLFWEKRLQGLSASDVTEQIIKTMELPKGLQGVGPGSNDETLLSAVASALHTSSAPITGQVSAAVEKNPAVWLNTSQPLCKAFIVTDEDIRKQEERVQQVRKKLEEALMADILSRAADTEEMDIEMDSGDEALEHHHHHH,soluble
8,MGSDKIHHHHHHMYLLVDVGNTHSVFSITEDGKTFRRWRLSTGVFQTEDELFSHLHPLLGDAMREIKGIGVASVVPTQNTVIERFSQKYFHISPIWVKAKNGCVKWNVKNPSEVGADRVANVVAFVKEYGKNGIIIDMGTATTVDLVVNGSYEGGAILPGFFMMVHSLFRGTAKLPLVEVKPADFVVGKDTEENIRLGVVNGSVYALEGIIGRIKEVYGDLPVVLTGGQSKIVKDMIKHEIFDEDLTIKGVYHFCFGD,not soluble
9,MAHHHHHHMDVKLGTIISRFTFTLPSLYDDGRDDYDATVSSPDDAATEESCGVAFTSGTHCDEARKTPKTTQAGSRSHVARFGAPASPTEKLDITGAYAFVSHGGAASSASLAAPSSPPPLLGRAAARGDRNNSTVAAPQHDVGDRGGGAVRYGTSLHLPDLVQLAAHAWNVELHCGSTGAASHCVLRLPPFVLGSTLYRGPVVYVLASGVVRMATHGSVAATELLARRVRDALHEACKPLAVRRAAREELLLMRAVLEDSLSDMLEDEGGEEGPARHLCTAVLKAEARLPSSGVSLSTALAADTAMSSQHGRRAAFGSSAAAARIGPMARDKAGHGLPTLVSTPSVLSARGCKIDFLQAVATPRWDEIVGLRASLFAPASAAPGSENSGGGGVAKADRDAEGAPRVSVRRASVNVRGDAPMEWWRWYLGVQADDHGVGGGDGSGAARRGGGAPSAAAANSEEPFPGDCSGVPLLGSWLSGDASEGGNADARSSNKTTGFWTCAGYADASPENAASFVHFLQRRRALLAHHVASFKLRRQATQNSLQILLDWRTATPPTPPAPPAPLSAAAAPLMGRPPLARALVGHPMAVAQPLPDSGTPSVPAAPTRTNISGNTWVTEASAANFFMESTFIAESAAPFELESVRMPTDRMSSADPALPVSMALGDRNVANPCGSTALAPDSGCGSMSALLEPSVGHSVLRYDSSSSKDDRTAAKAAPEKRMRGVAAAQASAANRDEAASAAMEHVTCLIHRTGRVQMTAASELALRQMCAMLLIPFLVATAEVEL,not soluble
10,MRNPKQTRGKQTKSKIINAAFELFSEKGYTGTSSNEIASRAEVAIGSFYSYFKDKKQLFIEVLKDYYDNISKISFSNINGTISNLDDFLYESIKIALKAHEYHPEFHREVNIMELADDDIKKLIVGYEKVKFDSFKKLVEPYKNEFKNLNFNEALFLIYTTIENTVHVITFSTDTNLNKETLIKELISMIKSYINA,not soluble
11,MRMEAGEAAPPAGAGGRATGGWGKWVRLNVGGTVFLTTRQTLCREQKSFLSRLCQGEELQSDRDETGAYLIDRDPTYFGPILNFLRHGKLVLDKDMAEEGVLEEAEFYNIGPLIRIIKDRMEEKDYTVTQVPPKHVYRVLQCQEEELTQMVSTMSDGWRFEQLVNIGSSYNYGSEDQAEFLCVVSKELHSTPNGLSSESSRKTKSTEEQLEEQQQQEEEVEEVEVEQVQVEADAQEKGAANPQEDDC,soluble
12,MAHIIRRVSIKDVENFISMLAKIYDESPYMFYTPGEYDPSVTSASKQLEEYITSPHKVIFVAESDEQLVGFAFVNTTPFQRIKHVAKIDLGVKKLYQHRGIGQALLDAIMAWCLNNQIHRIEANVPLNNQPALELFKSADFQIEGVLKDKLFIDGKYYDDYMMAKILN,soluble
13,MQKVRSDIMTHRGSHYDLGVKTALWLQTTPLLKNRNKEWRKRIPRFDIDVKETYDIFQIYSPQIWEEIIGMQDVLNLPTKQMILNFGHYRFTDLKDSGCTVYKGRDFLVRNYDYHPATYDGRYLLFQPNDGGLSQIGPTSRVTGRMDGMNEYGLVMAYNFMHRKKPANGFVCYMVGRLILENCKNVTEAIKFLKEVPHRSSFSYILMDRHSNYAIVEVTPRSIDVRYEHICTNHFELLTHENRNYTRESKERLNRVINKTTPSTNKDIAFKLFNDPQYEIYSNLFKSWSGTIHTSLYEPNSLIAWMALGQNSHPTSINFSNWLKGKKLNINYFEGEIDTPLTFATYLEHHHHHH,not soluble
